The results in this text go back to patent US20110300138A1 (published 2011).

For experiment [1], the target named is T1, human TSH receptor (full length), coated on tubes (human, UniProt P16473 22-764).
T1 construct: TSHR coated tubes as described in WO2004/050708A2; The receptor is full length and held on plastic tubes through a mouse MAb to the TSHR; also called thyroid stimulating hormone receptor
Briefly: inhibition of 125I-K1-70 Fab (competitor) binding to TSHR coated tubes; 1 µg/mL in assay buffer. How it is done:
(§1) Binding inhibition assays were carried out using TSHR coated tubes as described in WO2004/050708A2. […] After aspiration, the tubes were washed and 100 μL of ¹²⁵I-labelled protein (5×10⁴ cpm) added and incubated for 1 hour at room temperature with shaking. The tubes were then aspirated, washed and counted in a gamma counter. Inhibition of labelled protein binding was calculated as 100×[1−(cpm bound in the presence of test material/cpm bound in the presence of control material)].

The target of experiment [2] is T1, human TSH receptor (full length), …. Briefly: inhibition of 125I-K1-70 Fab (competitor) binding to TSHR coated tubes; 3 µg/mL in assay buffer. The procedure: as §1
The target is the same in experiment [3]. Briefly: inhibition of 125I-K1-70 Fab (competitor) binding to TSHR coated tubes; 10 µg/mL in assay buffer. How it is done: as §1
For experiment [4] the target is unchanged. Briefly: inhibition of 125I-K1-70 Fab (competitor) binding to TSHR coated tubes; 30 µg/mL in assay buffer. The procedure: as §1
Experiment [5] has the same target. Briefly: inhibition of 125I-K1-70 Fab (competitor) binding to TSHR coated tubes; 0.1 µg/mL in assay buffer. How it is done: as §1
Experiment [6] shares this target. Briefly: inhibition of 125I-K1-70 Fab (competitor) binding to TSHR coated tubes; 0.3 µg/mL in assay buffer. The procedure:
as §1

Experiment [7] shares this target. Briefly: inhibition of 125I-K1-70 Fab (competitor) binding to TSHR coated tubes; 1 µg/mL in HBD serum pool. The procedure:
as §1

Experiment [8] shares this target. Briefly: inhibition of 125I-K1-70 Fab (competitor) binding to TSHR coated tubes; 100 µg/mL in assay buffer. The procedure: as §1
Experiment [9] shares this target. Briefly: inhibition of 125I-K1-70 Fab (competitor) binding to TSHR coated tubes; 3 µg/mL in HBD serum pool. The procedure: as §1
Experiment [10] shares this target. Briefly: inhibition of 125I-K1-70 Fab (competitor) binding to TSHR coated tubes; 0.01 µg/mL in assay buffer. How it is done: as §1
Experiment [11] shares this target. Briefly: inhibition of 125I-K1-70 Fab (competitor) binding to TSHR coated tubes; 0.03 µg/mL in assay buffer. How it is done:
as §1

The target is the same in experiment [12]. Briefly: inhibition of 125I-K1-70 Fab (competitor) binding to TSHR coated tubes; 10 µg/mL in HBD serum pool. How it is done: as §1
Experiment [13] shares this target. Briefly: inhibition of 125I-K1-70 Fab (competitor) binding to TSHR coated tubes; 30 µg/mL in HBD serum pool. The procedure: as §1
Experiment [14] has the same target. Briefly: inhibition of 125I-K1-70 Fab (competitor) binding to TSHR coated tubes; 0.001 µg/mL in assay buffer. The procedure:
as §1

For experiment [15] the target is unchanged. Briefly: inhibition of 125I-K1-70 Fab (competitor) binding to TSHR coated tubes; 0.003 µg/mL in assay buffer. The procedure:
as §1

Experiment [16] shares this target. Briefly: inhibition of 125I-K1-70 Fab (competitor) binding to TSHR coated tubes; 0.1 µg/mL in HBD serum pool. How it is done: as §1
The target is the same in experiment [17]. Briefly: inhibition of 125I-K1-70 Fab (competitor) binding to TSHR coated tubes; 0.3 µg/mL in HBD serum pool. The procedure:
as §1

For experiment [18] the target is unchanged. Briefly: inhibition of 125I-K1-70 Fab (competitor) binding to TSHR coated tubes; 100 µg/mL in HBD serum pool. The procedure: as §1
Experiment [19] shares this target. Briefly: inhibition of 125I-K1-70 Fab (competitor) binding to TSHR coated tubes; 0.01 µg/mL in HBD serum pool. How it is done: as §1
The target is the same in experiment [20]. Briefly: inhibition of 125I-K1-70 Fab (competitor) binding to TSHR coated tubes; 0.03 µg/mL in HBD serum pool. How it is done: as §1
Experiment [21] shares this target. Briefly: inhibition of 125I-K1-70 Fab (competitor) binding to TSHR coated tubes; 0.001 µg/mL in HBD serum pool. How it is done:
as §1

The target is the same in experiment [22]. Briefly: inhibition of 125I-K1-70 Fab (competitor) binding to TSHR coated tubes; 0.003 µg/mL in HBD serum pool. The procedure: as §1

B1: K1-18 IgG (antibody, V domains shown)
VH: EVQLVQSGAEVKKPGESLKISCKGSGYSFTNYWIGWVRQMPGKGLEWMGIIYPYDSDTRYSPSFEGQVTISADKSIRTAYLHWSSLKASDTAMYYCVRPRDGSYPYDAFDIWGQGTMVTVSS
VL: EIVLTQSPGTLSLSPGERATLSCRASQSVSNNYLAWYQQKPGQAPRLLIYGASSRATGIPDRFSGSGSGTDFTLTISRLEPEDFAVYYCQHCGSSLRAFGQGTKVEIKR
notes: Human IgG1 kappa purified from hetero-hybridoma supernatant; also called human monoclonal autoantibody to the TSHR with TSH agonist activity
As for B1, the “Inhibition of binding (%)” value in experiment [1] came out at 93.1%; in [2], 93.3%; in [3], 94%; in [4], 94.5%; in experiment [5] it was 83.6%; in experiment [6] it was 92.6%. Further, the “Inhibition of binding (%)” value was determined as 89.4% in experiment [7]; 95.3% in experiment [8]; 93% in [9]; 30.3% in experiment [10]; 63.1% in experiment [11]; 94.8% in experiment [12]. For the same molecule, the “Inhibition of binding (%)” value stood at 95.6% in experiment [13]; 5.9% in experiment [14]; 11.4% in [15]; 51% in experiment [16]; 77.7% in experiment [17]; 96% in [18]. Besides, the “Inhibition of binding (%)” value in experiment [19] is 2.2%; in [20], 17.2%; in [21] it was -6.8%; in experiment [22], -9.4%.

B2: K1-18 Fab (Fab, V domains shown)
VH: EVQLVQSGAEVKKPGESLKISCKGSGYSFTNYWIGWVRQMPGKGLEWMGIIYPYDSDTRYSPSFEGQVTISADKSIRTAYLHWSSLKASDTAMYYCVRPRDGSYPYDAFDIWGQGTMVTVSS
VL: EIVLTQSPGTLSLSPGERATLSCRASQSVSNNYLAWYQQKPGQAPRLLIYGASSRATGIPDRFSGSGSGTDFTLTISRLEPEDFAVYYCQHCGSSLRAFGQGTKVEIKR
Regarding B2, the “Inhibition of binding (%)” value in [1] came out at 79%; in [2] it was 80.6%; in experiment [3], 80.8%; in experiment [4] it was 83.2%; in experiment [5], 62.9%; in experiment [6] it was 75.9%. The “Inhibition of binding (%)” value in experiment [7] was 78.7%; in [8], 86.4%; in experiment [9], 82.6%; in [10], 16.7%; in experiment [11], 38.8%; in [12] it was 83.2%. In addition, the “Inhibition of binding (%)” value is 85.4% in [13]; 3.8% in [14]; 5% in experiment [15]; 36.9% in [16]; 63.9% in experiment [17]; 85.7% in [18]. Also, the “Inhibition of binding (%)” value in experiment [19] was -0.8%; in experiment [20], 7.9%; in experiment [21] it was -8.2%; in experiment [22], -9.6%.

B3: K1-70 IgG (antibody, V domains shown)
VH: EVQLVQSGAEVKKPGQSLKISCKASGYSLTDNWIGWVRQKPGKGLEWMGIIYPGDSDTRYSPSFQGQVTISADKSINTAYLQWSSLKASDTAIYYCVGLDWNYNPLRYWGPGTLVTVSS
VL: QSVLTQPPSVSAAPGQKVTISCSGSSSDIGSNYVSWYQQFPGTAPKLLIYDNNKRPSAIPDRFSGSKSGTSATLGITGLQTGDEADYYCGTWDSRLGIAVFGGGTQLTVLG
notes: Human IgG1 lambda purified from hetero-hybridoma supernatant; also called human monoclonal autoantibody to the TSHR with TSH antagonist activity
B3: the “Inhibition of binding (%)” value in experiment [1] stood at 95.2%; in [2] it was 95.5%; in experiment [3], 96.9%; in experiment [4], 97.7%; in [5] it was 93.5%; in experiment [6] it was 94.2%. Besides, the “Inhibition of binding (%)” value came to 94.1% in experiment [7]; 97.7% in experiment [8]; 96.2% in experiment [9]; 66.2% in experiment [10]; 89% in experiment [11]; 96.6% in experiment [12]. For the same molecule, the “Inhibition of binding (%)” value in experiment [13] was 97.4%; in [14], 5.5%; in experiment [15], 27.7%; in experiment [16] it was 66.5%; in experiment [17] it was 97%; in [18] it was 97.7%. In addition, the “Inhibition of binding (%)” value in [19] was 10.6%; in experiment [20] it was 37.8%; in experiment [21] it was -8.8%; in experiment [22] it was -0.8%.

B4: K1-70 Fab (Fab, V domains shown)
VH: EVQLVQSGAEVKKPGQSLKISCKASGYSLTDNWIGWVRQKPGKGLEWMGIIYPGDSDTRYSPSFQGQVTISADKSINTAYLQWSSLKASDTAIYYCVGLDWNYNPLRYWGPGTLVTVSS
VL: QSVLTQPPSVSAAPGQKVTISCSGSSSDIGSNYVSWYQQFPGTAPKLLIYDNNKRPSAIPDRFSGSKSGTSATLGITGLQTGDEADYYCGTWDSRLGIAVFGGGTQLTVLG
As to B4, the “Inhibition of binding (%)” value in experiment [1] worked out at 93.5%; in experiment [2] it was 93.5%; in experiment [3], 93.6%; in experiment [4], 95.1%; in experiment [5], 92.2%; in [6] it was 92.7%. For the same molecule, the “Inhibition of binding (%)” value in experiment [7] amounted to 94.2%; in experiment [8], 96.7%; in [9], 94.9%; in [10], 75.6%; in experiment [11], 89%; in [12] it was 94.8%. For the same molecule, the “Inhibition of binding (%)” value in experiment [13] was 95.7%; in experiment [14], 11.9%; in experiment [15], 40%; in experiment [16], 81.9%; in experiment [17], 91.4%; in [18], 96.3%. The “Inhibition of binding (%)” value in experiment [19] is 25.3%; in experiment [20], 57.2%; in experiment [21] it was -2.5%; in experiment [22], 2.5%.
